Data set [1] deals with FOXO1 DNA-binding domain (UniProt Q12778). Nature of the data set: ITC. The settings on record: FOXO1 alone; 50 mM Bis-Tris, 150 mM NaCl, pH 6.5; ITC at 25 °C; NMR 1H-15N HSQC with 100 uM FOXO1.
For data set [2], the target named is FOXO1 DNA-binding domain;ETS1 R409A R409A (UniProt Q12778+P14921). Nature of the data set: ITC. The note with it: FOXO1 titrated into equimolar ETS1 R409A + DNA; Kd of FOXO1; 50 mM Bis-Tris, 150 mM NaCl, pH 6.5; ITC at 25 °C; NMR 1H-15N HSQC with 100 uM FOXO1.
Data set [3] has as its target FOXO1 DNA-binding domain;ETS1 R409H R409H (UniProt Q12778+P14921). Briefly: ITC. The settings on record: FOXO1 titrated into equimolar ETS1 R409H + DNA; Kd of FOXO1; 50 mM Bis-Tris, 150 mM NaCl, pH 6.5; ITC at 25 °C; NMR 1H-15N HSQC with 100 uM FOXO1.
In data set [4] the target is FOXO1 DNA-binding domain;ETS1 Y410A Y410A (UniProt Q12778+P14921). Briefly: ITC. The note with it: FOXO1 titrated into equimolar ETS1 Y410A + DNA; Kd of FOXO1; 50 mM Bis-Tris, 150 mM NaCl, pH 6.5; ITC at 25 °C; NMR 1H-15N HSQC with 100 uM FOXO1.
Data set [5] concerns the target FOXO1 DNA-binding domain;ETS1 DNA-binding domain (UniProt Q12778+P14921). Briefly: ITC. The settings on record: FOXO1 titrated into equimolar ETS1 + DNA; Kd of FOXO1; 50 mM Bis-Tris, 150 mM NaCl, pH 6.5; ITC at 25 °C; NMR 1H-15N HSQC with 100 uM FOXO1.
In data set [6] the target is FOXO1 DNA-binding domain (UniProt Q12778). Briefly: NMR. The settings on record: FOXO1 alone, 50 mM Bis-Tris, 150 mM NaCl, pH 6.5, ITC at 25 °C, NMR 1H-15N HSQC with 100 uM FOXO1.

Consider AAAACAACAGGAAGTATTT (double strand) [ω], for which the Kd with FOXO1 DNA-binding domain [1] was determined as 0.352 µM; in data set [2], 0.151 µM; in data set [3] it was 0.067 µM; in data set [4], 0.313 µM; in data set [5], 0.044 µM.

For “CTGTAAACAGGAAGTGGAG (double strand) [ω-none]”, the results for the Kd (in the data set with FOXO1 DNA-binding domain [1]; in data set [5]) were 0.024 µM and 0.026 µM, respectively.

For the sequence “TGACGCACCGGAAGTTAGG (double strand) [ω-high]”, the Kd with FOXO1 DNA-binding domain [6] (fit of residue G161 peak) is 122 µM; with FOXO1 DNA-binding domain [6] (mean of selected peaks, fast exchange) it was 167 µM.

For the origin of these results see paper PMC6949242.
